Data set [1] concerns the target T1, C-type lectin-like molecule-1 (CLL-1), immobilized on magnetic beads or SPR chip (UniProt Q5QGZ9).
T1 sequence: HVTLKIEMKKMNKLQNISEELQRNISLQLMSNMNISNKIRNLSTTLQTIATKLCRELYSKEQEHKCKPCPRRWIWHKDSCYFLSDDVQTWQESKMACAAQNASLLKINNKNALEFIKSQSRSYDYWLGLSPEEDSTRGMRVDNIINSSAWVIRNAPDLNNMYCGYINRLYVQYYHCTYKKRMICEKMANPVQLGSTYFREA
Briefly: flow cytometry (bead binding). The note with it: Flow cytometry: 100 nM FAM-aptamer, 10 uL MB-CLL-1 in 200 uL DPBS, room temperature, 30 min, 150 rpm, 3 DPBS washes, SPR buffer and temperature not stated. In general terms: Flow cytometry measures light scatter and fluorescence of single cells or particles in a stream.

Data set [2] addresses T1, C-type lectin-like molecule-1 (CLL-1), immobilized on magnetic beads or SPR chip. The experiment in a line: SPR. The note with it: aptamer 0.000244-0.0625 uM, Flow cytometry: 100 nM FAM-aptamer, 10 uL MB-CLL-1 in 200 uL DPBS, room temperature, 30 min, 150 rpm, 3 DPBS washes, SPR buffer and temperature not stated.

As to “AACACTGGGGGCTGCTCGGGATTGTCGGACGTGGTG [Aptamer-4 (Apt-4)]”, the binding signal (% FITC-positive beads) in data set [1] (100 nM aptamer) was 2.84.
In data set [2], “ATTACCAGGGACCGAAGGCAAAACTATGATCGGTGG [Aptamer-2 (Apt-2)]” yielded an equilibrium dissociation constant (Kd) of 15.5 nM. Also, the binding signal (% FITC-positive beads) in data set [1] (100 nM aptamer) is 94.3; in data set [1] (100 nM aptamer, specificity experiment), 100.
In the case of “CACGAACCGGGGAGGGCGGGCGGGTTGGTGTCGTGC [Aptamer-3 (Apt-3)]”, in data set [1], the binding signal (% FITC-positive beads) was found to be 1.23.
In data set [1] (100 nM aptamer, text gives 3.28), “TCGCGAAGGGTGGGGACTGCTCGGGATTGCGGATGC [Aptamer-1 (Apt-1)]” returned a binding signal (% FITC-positive beads) of 3.26.

Usually Kd stands for the equilibrium constant for the complex coming apart.

The values are drawn from publication PMC12354661.
